Assay results reported in patent US5693476.

What was measured:
[1] = target: GST-syntaxin 1A deletion mutant Syn 1A17 (amino acids 4-240) (Schistosoma japonicum; rat); test: 20S complex on GST-Syn 1A17 beads, ATP and Mg++, Western blot densitometry
[2] = target: GST-syntaxin 1A cytoplasmic domain fusion protein (Syn 1A11, amino acids 4-266), immobilized on glutathione agarose beads (Schistosoma japonicum; rat); test: 20S complex assembly on GST-syntaxin beads with SNAP-25, VAMP, α-SNAP and NSF added together, ATP, 25° C., Western blot densitometry, FIG. 6A
[3] = target: GST-syntaxin 1A deletion mutant Syn 1A5 (amino acids 4-114) (Schistosoma japonicum; rat); test: GST-syntaxin deletion mutant on glutathione beads, soluble ligand, Western blot densitometry; FIG. 4C row 2 from top, row label only in the figure (assigned by Table 1 order and paragraph 328)
[4] = target: GST-syntaxin 1A deletion mutant Syn 1A17 (amino acids 4-240) (Schistosoma japonicum; rat); test: 20S complex assembly on GST-syntaxin beads with all four proteins together, ATPγS, 18° C. overnight MgCl2, Western blot densitometry, FIG. 6B
[5] = target: GST-syntaxin 1A deletion mutant Syn 1A6 (amino acids 4-190) (Schistosoma japonicum; rat); test: as above
[6] = target: GST-syntaxin 1A cytoplasmic domain fusion protein (Syn 1A11, amino acids 4-266), immobilized on glutathione agarose beads (Schistosoma japonicum; rat); test: as above
[7] = target: GST-syntaxin 1A H3 domain construct Syn 1A16 (amino acids 191-266) (Schistosoma japonicum; rat); test: as above
[8] = target: GST-syntaxin 1A deletion mutant Syn 1A13 (amino acids 4-221) (Schistosoma japonicum; rat); test: as above
[9] = target: GST-syntaxin 1A cytoplasmic domain fusion protein (Syn 1A11, amino acids 4-266), immobilized on glutathione agarose beads (Schistosoma japonicum; rat); test: GST-syntaxin deletion mutant on glutathione beads, soluble ligand, Western blot densitometry; FIG. 4C row 6 from top, row label only in the figure (assigned by Table 1 order and paragraph 328)
[10] = target: GST-syntaxin 1A cytoplasmic domain fusion protein (Syn 1A11, amino acids 4-266), immobilized on glutathione agarose beads (Schistosoma japonicum; rat); test: GST-syntaxin 1A (wild type) on glutathione beads, soluble ligand, Western blot densitometry, FIG. 5B
[11] = target: GST-syntaxin 1A deletion mutant Syn 1A6 (amino acids 4-190) (Schistosoma japonicum; rat); test: GST-syntaxin deletion mutant on glutathione beads, soluble ligand, Western blot densitometry; FIG. 4C row 3 from top, row label only in the figure (assigned by Table 1 order and paragraph 328)
[12] = target: GST-syntaxin 1A deletion mutant Syn 1A17 (amino acids 4-240) (Schistosoma japonicum; rat); test: GST-syntaxin deletion mutant on glutathione beads, soluble ligand, Western blot densitometry; FIG. 4C row 5 from top, row label only in the figure (assigned by Table 1 order and paragraph 328)
[13] = target: GST-syntaxin 1A deletion mutant Syn 1A13 (amino acids 4-221) (Schistosoma japonicum; rat); test: GST-syntaxin deletion mutant on glutathione beads, soluble ligand, Western blot densitometry; FIG. 4C row 4 from top, row label only in the figure (assigned by Table 1 order and paragraph 328)
[14] = target: GST-syntaxin 1A H3 domain construct Syn 1A16 (amino acids 191-266) (Schistosoma japonicum; rat); test: 20S complex on GST-Syn 1A16 beads, ATP and Mg++, Western blot densitometry
[15] = target: GST-syntaxin 1A (Syn1A11) point mutant M1: R198A, I202A (Schistosoma japonicum; rat); test: GST-syntaxin point mutant on glutathione beads, soluble ligand, Western blot densitometry, FIG. 5B
[16] = target: GST-syntaxin 1A (Syn1A11) point mutant M5: I230A, I233A (Schistosoma japonicum; rat); test: as above
[17] = target: GST-syntaxin 1A (Syn1A11) point mutant M3: L212A, F216A (Schistosoma japonicum; rat); test: as above
[18] = target: GST-syntaxin 1A (Syn1A11) point mutant 13 (four point mutations) (Schistosoma japonicum; rat); test: as above
[19] = target: GST-syntaxin 1A (Syn1A11) point mutant M2: L205A, I209A (Schistosoma japonicum; rat); test: as above
[20] = target: GST-syntaxin 1A (Syn1A11) point mutant 12 (four point mutations) (Schistosoma japonicum; rat); test: as above
[21] = target: GST-syntaxin 1A (Syn1A11) point mutant M4: V223A, Q226A (Schistosoma japonicum; rat); test: as above
[22] = target: GST-syntaxin 1A (Syn1A11) point mutant 34 (Schistosoma japonicum; rat); test: as above
[23] = target: GST-syntaxin 1A (Syn1A11) point mutant M6: A240V, V244A (Schistosoma japonicum; rat); test: as above
[24] = target: GST-syntaxin 1A (Syn1A11) point mutant 45 (Schistosoma japonicum; rat); test: as above
[25] = target: GST-syntaxin 1A deletion mutant Syn 1A4 (amino acids 8-76) (Schistosoma japonicum; rat); test: GST-syntaxin deletion mutant on glutathione beads, soluble ligand, Western blot densitometry; FIG. 4C row 1 from top, row label only in the figure (assigned by Table 1 order and paragraph 328)

Chain of SNAP-25 (synaptosomal-associated protein of 25 kDa), soluble recombinant (chain): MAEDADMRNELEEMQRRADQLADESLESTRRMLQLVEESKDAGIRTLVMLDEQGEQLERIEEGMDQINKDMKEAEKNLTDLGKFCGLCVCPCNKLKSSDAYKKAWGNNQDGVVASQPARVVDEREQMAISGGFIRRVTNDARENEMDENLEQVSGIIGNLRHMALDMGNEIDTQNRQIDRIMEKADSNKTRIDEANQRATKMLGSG
Chain of His-tagged α-SNAP (soluble NSF attachment protein), soluble recombinant (P81125 whole entry): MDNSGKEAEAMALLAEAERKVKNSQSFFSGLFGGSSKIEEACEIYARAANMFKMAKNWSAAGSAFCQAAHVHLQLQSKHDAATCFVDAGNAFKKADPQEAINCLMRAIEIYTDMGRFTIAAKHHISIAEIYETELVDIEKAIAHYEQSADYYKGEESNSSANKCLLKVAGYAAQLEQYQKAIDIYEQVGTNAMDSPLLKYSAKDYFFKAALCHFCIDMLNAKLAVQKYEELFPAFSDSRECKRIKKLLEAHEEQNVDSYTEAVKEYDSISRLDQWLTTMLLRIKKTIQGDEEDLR

Row | Substance | percent dissociated in the presence of ATP and Mg++ [1] | densitometry pixel value [2] | densitometry pixel value [3] | densitometry pixel value [4] | densitometry pixel value [5] | densitometry pixel value [6] | densitometry pixel value [7] | densitometry pixel value [8] | densitometry pixel value [9] | densitometry pixel value [10] | densitometry pixel value [11] | densitometry pixel value [12] | densitometry pixel value [13] | percent dissociated in the presence of ATP and Mg++ [14] | densitometry pixel value [15] | densitometry pixel value [16] | densitometry pixel value [17] | densitometry pixel value [18] | densitometry pixel value [19] | densitometry pixel value [20] | also measured
1 | VAMP (vesicle-associated membrane protein; VAMP 2), soluble recombinant | 0% | 32 pixel value | 0 pixel value | 812 pixel value | 0 pixel value | 691 pixel value | 944 pixel value | 1310 pixel value | 286 pixel value | 2610 pixel value | 0 pixel value | 0 pixel value | 0 pixel value | 0% | 37 pixel value | 0 pixel value | 0 pixel value | 0 pixel value | 17 pixel value | 0 pixel value | densitometry pixel value [21]: 0 pixel value; densitometry pixel value [22]: 0 pixel value; densitometry pixel value [23]: 0 pixel value; densitometry pixel value [24]: 0 pixel value; densitometry pixel value [25]: 0 pixel value
2 | His-tagged α-SNAP (soluble NSF attachment protein), soluble recombinant (from UniProt P81125) | 25% | 132 pixel value | 0 pixel value | 1070 pixel value | 0 pixel value | 1040 pixel value | 1420 pixel value | 0 pixel value | 1670 pixel value | 414 pixel value | 0 pixel value | 1660 pixel value | 0 pixel value | 0% | 53 pixel value | 25 pixel value | 23 pixel value | 15 pixel value | 36 pixel value | 23 pixel value | densitometry pixel value [21]: 43 pixel value; densitometry pixel value [22]: 10 pixel value; densitometry pixel value [23]: 633 pixel value; densitometry pixel value [24]: 7 pixel value; densitometry pixel value [25]: 0 pixel value
3 | SNAP-25 (synaptosomal-associated protein of 25 kDa), soluble recombinant | 0% | 768 pixel value | 19 pixel value | 415 pixel value | 0 pixel value | 85 pixel value | 504 pixel value | 1340 pixel value | 797 pixel value | 555 pixel value | 9 pixel value | 623 pixel value | 417 pixel value | 5% | 586 pixel value | 824 pixel value | 866 pixel value | 143 pixel value | 672 pixel value | 361 pixel value | densitometry pixel value [21]: 754 pixel value; densitometry pixel value [22]: 712 pixel value; densitometry pixel value [23]: 875 pixel value; densitometry pixel value [24]: 640 pixel value; densitometry pixel value [25]: 19 pixel value
